Earlier results as cited in article PMC8305778.

Molecular target: FcεRIα (Homo sapiens) (UniProt P12319)
Assay: given as Ka

Sequence of UniProt P12319 (P12319 26-257): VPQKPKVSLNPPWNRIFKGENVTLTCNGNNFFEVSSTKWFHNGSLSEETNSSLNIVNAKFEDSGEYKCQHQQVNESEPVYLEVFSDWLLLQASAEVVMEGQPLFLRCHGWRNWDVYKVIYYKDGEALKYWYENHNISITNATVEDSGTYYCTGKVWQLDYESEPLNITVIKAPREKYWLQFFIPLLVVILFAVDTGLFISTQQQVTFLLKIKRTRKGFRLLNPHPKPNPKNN

Substance: IgE Fc (from UniProt P01854)
- Kd: 0.1 nM
